The values below come from US20200199244A1 (published 2020).

The target in test [1] is T1, human CD40 (human, UniProt P25942 21-277).
T1 construct: Native on primary human tonsillar B cells, monocyte-derived dendritic cells and RAMOS cells; stably transfected on CHO-DG44 cells; also called hCD40
Briefly: CHO-CD40 cell RBA: competition with biotinylated human IZ-CD40L for human CD40 on CHO cells, fluorescence (FMAT); 0.1% BSA.

The target in test [2] is T1, human CD40. Briefly: CHO-CD40 cell RBA: competition with biotinylated human IZ-CD40L for human CD40 on CHO cells, fluorescence (FMAT); 50 µM HSA.
The target in test [3] is T2, wild type human CD40 Fc fusion (human, UniProt P25942 21-193).
T2 construct: also called wt-hCD40; not shown: human IgG1 Fc
Briefly: SPR, ProteOn XPR36; CD40-Fc captured, dAb analyte; 1:1 fit; repeat.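 Further: CD40-Fc captured on anti-human IgG(Fc) surface of a GLC chip, buffer pH 7.1, sensorgrams double-referenced against surfaces without CD40-Fc.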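 Further: CD40-Fc held on a GLC chip by an immobilized anti-human IgG(Fc) antibody, sensorgrams double-referenced against CD40-free surfaces, running buffer sodium phosphate with NaCl and Tween 20 at pH 7.1.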

Test [4] addresses T2, wild type human CD40 Fc fusion. Briefly: SPR, ProteOn XPR36; CD40-Fc captured, dAb analyte; 1:1 fit.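 Further: CD40-Fc captured on anti-human IgG(Fc) surface of a GLC chip, buffer pH 7.1, sensorgrams double-referenced against surfaces without CD40-Fc.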
Protocol: Assays were performed on a BioRad ProteOn XPR36 SPR instrument. The SPR surfaces were prepared by immobilizing 8 μg/ml anti-human IgG(Fc) antibody (Biacore/GE Healthcare) in 10 mM sodium acetate pH 4.5 on a BioRad GLC sensor chip using standard ethyl(dimethylaminopropyl) carbodiimide (EDC)/N-hydroxysuccinimide (NHS) chemistry, with ethanolamine blocking. The running buffer for immobilization and kinetic binding analysis was 10 mM sodium phosphate, 130 mM sodium chloride, 0.05% tween 20, pH 7.1. CD40-Fc fusion proteins at concentrations of 20 μg/ml were captured in the vertical orientation on these surfaces via the Fc tail, and reference surfaces lacking CD40-Fc proteins were used for reference subtraction. […] The surfaces were regenerated in both horizontal and vertical orientations with 30 s pulses of 3 M MgCl₂ followed by running buffer at 60 μl/min. Sensogram data was double-referenced and then fitted to a 1:1 Langmuir model using BioRad ProteOn Manager V.2.1.0.38 software, to determine the association rate constant (ka), the dissociation rate constant (kd), and the equilibrium dissociation constant (KD).
Test [5] concerns the target T3, human CD40 (W109L, L121P) Fc fusion (human, UniProt P25942 21-193).
T3 construct: Same construct as wt-hCD40 with W109L and L121P; also called hCD40-M4; hCD40 M4 (W109L, L121P); not shown: human IgG1 Fc
The test is described as above.

Test [6] deals with T4, human CD40 (H76R, W109L, L121P) Fc fusion (human).
T4 construct: Same construct as wt-hCD40 with H76R, W109L and L121P; also called hCD40-M5; hCD40-M5 (H76R, W109L, L121P); not shown: human IgG1 Fc
T4 chain: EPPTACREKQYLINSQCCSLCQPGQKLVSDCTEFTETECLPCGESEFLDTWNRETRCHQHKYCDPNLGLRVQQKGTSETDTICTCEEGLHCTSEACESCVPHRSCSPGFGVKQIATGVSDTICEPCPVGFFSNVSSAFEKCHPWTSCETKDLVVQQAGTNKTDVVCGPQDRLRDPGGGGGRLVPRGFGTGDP
The description is as above.

The target of test [7] is T5, human CD40 (W109R) Fc fusion (Chimpanzee CD40) (human, UniProt P25942 21-193).
T5 construct: Same construct as wt-hCD40 with W109R (the residue of chimpanzee CD40); also called hCD40-M3; hCD40 M3 (W109R); not shown: human IgG1 Fc
Described as above.

The target of test [8] is T6, wild type cynomolgus monkey CD40 Fc fusion (cynomolgus monkey (Macaca …)).
T6 construct: also called wt-cCD40; wt-cyno-CD40; not shown: human IgG1 Fc
T6 chain: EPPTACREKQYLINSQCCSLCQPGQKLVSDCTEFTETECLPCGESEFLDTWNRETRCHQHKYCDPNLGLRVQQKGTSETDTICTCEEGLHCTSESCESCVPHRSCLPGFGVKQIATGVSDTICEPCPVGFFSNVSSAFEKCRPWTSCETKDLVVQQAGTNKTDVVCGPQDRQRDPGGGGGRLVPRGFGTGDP
The description is as above.

Test [9] deals with T7, human CD40 (W109L) Fc fusion (human, UniProt P25942 21-193).
T7 construct: Same construct as wt-hCD40 with W109L; also called hCD40-M2; hCD40 M2 (W109L); not shown: human IgG1 Fc
The description is as above.

Test [10] addresses T8, human CD40 (H76R) Fc fusion (human, UniProt P25942 21-193).
T8 construct: also called hCD40-M1; hCD40 M1 (H76R); not shown: human IgG1 Fc
The test is described as above.

B1: DMS0658 DOM7h-11-3-TVAAPS-BMS3h-56-201 (bispecific antibody)
chain: DIQMTQSPSSLSASVGDRVTITCRASRPIGTTLSWYQQKPGKAPKLLILWNSRLQSGVPSRFSGSGSGTDFTLTISSLQPEDFATYYCAQAGTHPTTFGQGTKVEIKRTVAAPSEVQLLESGGGLVQPGGSLRLSCAASGFTFRDYEMWWVRQAPGKGLERVSAINPQGTRTYYADSVKGRFTISRDNSKNTLYLQMNSLRAEDTAVYYCAKLPFYFQEWGQGTLVTVSS
notes: AlbudAb inline fusion (ILF): an anti-CD40 dAb and an anti-serum-albumin dAb joined by a linker in one polypeptide
In the case of B1, the EC50 was 12.2 nM in test [1] and 9.1 nM in test [2].

B2: DMS0661 DOM7h-11-87-TVAAPS-BMS3h-56-258 (bispecific antibody)
chain: DIQMTQSPSSLSASVGDRVTITCRASRPIGTMLSWYQQKPGKAPKLLILAFSRLQSGVPSRFSGSGSGTDFTLTISSLQPEDFATYYCAQAGTHHTTFGQGTKVEIKRTVAAPSEVQLLESGGGLVQPGGSLRLSCAASGFTFRDYEMWWVRQAPGKGLERVSAINPQGTRTYYADSVKGRFTISRDNSKNTLYLQMNSLRAEDTAVYYCAKLPFYFHEWGQGTLVTVSS
notes: as for B1
For the molecule B2, the EC50 in test [1] worked out at 4.1 nM; in test [2] it was 5.7 nM.

B3: DMS0660 DOM7h-11-3-TVAAPS-BMS3h-56-258 (bispecific antibody)
chain: DIQMTQSPSSLSASVGDRVTITCRASRPIGTTLSWYQQKPGKAPKLLILWNSRLQSGVPSRFSGSGSGTDFTLTISSLQPEDFATYYCAQAGTHPTTFGQGTKVEIKRTVAAPSEVQLLESGGGLVQPGGSLRLSCAASGFTFRDYEMWWVRQAPGKGLERVSAINPQGTRTYYADSVKGRFTISRDNSKNTLYLQMNSLRAEDTAVYYCAKLPFYFHEWGQGTLVTVSS
notes: as for B1
Turning to B3, the EC50 in [1] is 21.8 nM; in test [2], 13.1 nM.

B4: BMS3h-217-16 (other)
VL: DIQMTQSPSSLSASVGDRVTITCRASHFIGTLLSWYQQKPRKAPKLLITYGSLLQSGVPSRFSGSGSGTDFTLTISSLQPEDFATYYCGQGVLWPPTFGQGTKVEIKR
notes: Anti-human CD40 domain antibody (dAb), single V kappa domain
Regarding B4, the dissociation constant (Kd) in test [3] worked out at 0.26 nM; in test [4], 0.22 nM; in test [5] it was 0.35 nM; in test [6], 0.47 nM; in [7], 0.27 nM; in test [8] it was 0.43 nM. Besides, the values for the dissociation constant Kd in test [9] and in test [10] were 0.41 nM and 0.35 nM, respectively. Besides, the koff came to 0.000847 s⁻¹ in test [3]; 0.000991 s⁻¹ in test [4]; 0.00152 s⁻¹ in test [5]; 0.0017 s⁻¹ in [6]; 0.00104 s⁻¹ in test [7]; 0.00147 s⁻¹ in test [8]. For the same molecule, the koff in test [9] was 0.00167 s⁻¹; in test [10] it was 0.00168 s⁻¹. Moreover, the kon in test [3] was 3.3e+06 M⁻¹ s⁻¹; in test [4], 4.47e+06 M⁻¹ s⁻¹; in [5], 4.39e+06 M⁻¹ s⁻¹; in [6], 3.65e+06 M⁻¹ s⁻¹; in test [7] it was 3.78e+06 M⁻¹ s⁻¹; in [8] it was 3.44e+06 M⁻¹ s⁻¹. The kon in test [9] was 4.06e+06 M⁻¹ s⁻¹; in test [10] it was 4.83e+06 M⁻¹ s⁻¹.

B5: BMS3h-217-23 (other)
VL: DIQMTQSPSSLSASVGDRVTITCRASHFIGSLLSWYQVKPGKAPKLLITYGSLLQSGVPSRFSGSGSGTDFTLTISSLQPEDFATYYCGQGVLWPATFGQGTTVEIKR
notes: as for B4
Turning to B5, the Kd in [3] amounted to 1.52 nM; in test [4] it was 0.78 nM; in test [5], 1.61 nM; in [6], 2.21 nM; in test [7], 1.22 nM; in test [8] it was 1.9 nM. For the same molecule, the Kd in test [9] was determined as 1.95 nM; in test [10], 1.59 nM. The koff in [3] is 0.00163 s⁻¹; in test [4], 0.00127 s⁻¹; in test [5], 0.00268 s⁻¹; in [6], 0.00287 s⁻¹; in [7], 0.00186 s⁻¹; in test [8] it was 0.00235 s⁻¹. Also, the figures for the koff in test [9] and in test [10] were 0.00291 s⁻¹ and 0.00262 s⁻¹, respectively. For the same molecule, the kon was 1.07e+06 M⁻¹ s⁻¹ in [3]; 1.64e+06 M⁻¹ s⁻¹ in test [4]; 1.67e+06 M⁻¹ s⁻¹ in test [5]; 1.3e+06 M⁻¹ s⁻¹ in [6]; 1.53e+06 M⁻¹ s⁻¹ in test [7]; 1.24e+06 M⁻¹ s⁻¹ in [8]. Besides, the results for the kon in test [9] and in test [10] were 1.49e+06 M⁻¹ s⁻¹ and 1.64e+06 M⁻¹ s⁻¹, respectively.

B6: BMS3h-217-5 (other)
VL: DIQMTQSPSFLSASVGDRVTITCRASHFIATLLSWYQQKPGKAPKLLITYGSLLQSGVPSRFSGSGSGTDFTLTISSLQPEDFATYYCGQGVLWPPTFGQGTKVEIKR
notes: as for B4
On to B6, for which the Kd is 0.48 nM in test [3]; 0.47 nM in test [4]; 0.93 nM in test [5]; 0.99 nM in test [6]; 0.72 nM in test [7]; 0.86 nM in test [8]. Moreover, the Kd in test [9] was 0.99 nM; in [10], 0.94 nM. The koff in [3] is 0.000981 s⁻¹; in test [4], 0.00127 s⁻¹; in [5], 0.00259 s⁻¹; in test [6], 0.00242 s⁻¹; in test [7] it was 0.00196 s⁻¹; in test [8], 0.00212 s⁻¹. The koff in test [9] was 0.00251 s⁻¹; in [10], 0.00299 s⁻¹. Moreover, the kon worked out at 2.03e+06 M⁻¹ s⁻¹ in test [3]; 2.71e+06 M⁻¹ s⁻¹ in test [4]; 2.78e+06 M⁻¹ s⁻¹ in test [5]; 2.44e+06 M⁻¹ s⁻¹ in test [6]; 2.73e+06 M⁻¹ s⁻¹ in test [7]; 2.46e+06 M⁻¹ s⁻¹ in [8]. Moreover, the kon amounted to 2.55e+06 M⁻¹ s⁻¹ in [9] and 3.17e+06 M⁻¹ s⁻¹ in [10].

B7: DMS0654 BMS3h-56-201-AST-DOM7h-11-3 (bispecific antibody)
chain: EVQLLESGGGLVQPGGSLRLSCAASGFTFRDYEMWWVRQAPGKGLERVSAINPQGTRTYYADSVKGRFTISRDNSKNTLYLQMNSLRAEDTAVYYCAKLPFYFQEWGQGTLVTVSSASTDIQMTQSPSSLSASVGDRVTITCRASRPIGTTLSWYQQKPGKAPKLLILWNSRLQSGVPSRFSGSGSGTDFTLTISSLQPEDFATYYCAQAGTHPTTFGQGTKVEIKR
notes: as for B1
As to B7, the EC50 in [1] was 15 nM; in test [2], 8.6 nM.

B8: DMS0655 BMS3h-56-201-AST-DOM7h-11-87 (bispecific antibody)
chain: EVQLLESGGGLVQPGGSLRLSCAASGFTFRDYEMWWVRQAPGKGLERVSAINPQGTRTYYADSVKGRFTISRDNSKNTLYLQMNSLRAEDTAVYYCAKLPFYFQEWGQGTLVTVSSASTDIQMTQSPSSLSASVGDRVTITCRASRPIGTMLSWYQQKPGKAPKLLILAFSRLQSGVPSRFSGSGSGTDFTLTISSLQPEDFATYYCAQAGTHHTTFGQGTKVEIKR
notes: as for B1
As for B8, the EC50 in test [1] stood at 6.3 nM; in test [2], 2.7 nM.

B9: DMS0656 BMS3h-56-258-AST-DOM7h-11-3 (bispecific antibody)
chain: EVQLLESGGGLVQPGGSLRLSCAASGFTFRDYEMWWVRQAPGKGLERVSAINPQGTRTYYADSVKGRFTISRDNSKNTLYLQMNSLRAEDTAVYYCAKLPFYFHEWGQGTLVTVSSASTDIQMTQSPSSLSASVGDRVTITCRASRPIGTTLSWYQQKPGKAPKLLILWNSRLQSGVPSRFSGSGSGTDFTLTISSLQPEDFATYYCAQAGTHPTTFGQGTKVEIKR
notes: as for B1
B9: the EC50 in test [1] came to 11.8 nM; in test [2] it was 26.8 nM.

B10: DMS0657 BMS3h-56-258-AST-DOM7h-11-87 (bispecific antibody)
chain: EVQLLESGGGLVQPGGSLRLSCAASGFTFRDYEMWWVRQAPGKGLERVSAINPQGTRTYYADSVKGRFTISRDNSKNTLYLQMNSLRAEDTAVYYCAKLPFYFHEWGQGTLVTVSSASTDIQMTQSPSSLSASVGDRVTITCRASRPIGTMLSWYQQKPGKAPKLLILAFSRLQSGVPSRFSGSGSGTDFTLTISSLQPEDFATYYCAQAGTHHTTFGQGTKVEIKR
notes: as for B1
For B10, the EC50 stood at 6.8 nM in [1] and 16.6 nM in test [2].
